In publication PMC7492416 (Nature plants, 2020):

B1: BAK1-GFP (receptor, Arabidopsis, UniProt Q94F62 26-615, looked up)
chain: NAEGDALSALKNSLADPNKVLQSWDATLVTPCTWFHVTCNSDNSVTRVDLGNANLSGQLVMQLGQLPNLQYLELYSNNITGTIPEQLGNLTELVSLDLYLNNLSGPIPSTLGRLKKLRFLRLNNNSLSGEIPRSLTAVLTLQVLDLSNNPLTGDIPVNGSFSLFTPISFANTKLTPLPASPPPPISPTPPSPAGSNRITGAIAGGVAAGAALLFAVPAIALAWWRRKKPQDHFFDVPAEEDPEVHLGQLKRFSLRELQVASDNFSNKNILGRGGFGKVYKGRLADGTLVAVKRLKEERTQGGELQFQTEVEMISMAVHRNLLRLRGFCMTPTERLLVYPYMANGSVASCLRERPESQPPLDWPKRQRIALGSARGLAYLHDHCDPKIIHRDVKAANILLDEEFEAVVGDFGLAKLMDYKDTHVTTAVRGTIGHIAPEYLSTGKSSEKTDVFGYGVMLLELITGQRAFDLARLANDDDVMLLDWVKGLLKEKKLEALVDVDLQGNYKDEEVEQLIQVALLCTQSSPMERPKMSEVVRMLEGDGLAERWEEWQKEEMFRQDFNYPTHHPAVSGWIIGDSTSQIENEYPSGPR
B2: MEKK2-mCherry (natural protein, Arabidopsis thaliana (Col-0 cDNA), UniProt O81472 1-773, looked up)
chain: MKKSSDKSPVRQHDTATQINSDAVSSSTSFTDSDSTCSFLTPSMEFPDRISFRRIDFSEAAPTGVVLPSTSSELTRSNSSENKIPNEDISVSTSSRYLVFDKILALMKKSPGRRGDKTSPARRLDRSDAVRRNIDYDAGEDSSSLLITRSLDFPNRTSFRVDGVDDGEIDRIYQYIGVSGPEDFAISSDAWKARMEHERSSSDVVNKLKSLDLDSREAGPSGGVVASSSMNHKFQGHDLSEAGSIGVVVASNFTLSESNKIENLNSLRDKEIVDGDMVENRCGIERKPTILVKSRGYLVHNDDVGVGGGIKGVRPPVLNVPRADKEVVDGGTVESKSGIEWKPTILVKSKGYLVSNDGGIKGVTSPVLNLRPTDKEVVDSGTVENRRGIKGVRPSVLKPPPVMKLPPVDLPGSSWDILTHFAPDSEIVRRPSSSSSSENGCDEEEAEDDKVEKEETGDMFIQLEDTTDEACSFTTNEGDSSSTVSNTSPICVSGGSINTSWQKGQLLRQGSFGSVYEAISEDGDFFAVKEVSLLDQGSQAQECIQQLEGEIALLSQLEHQNILRYRGTDKDGSNLYIFLELVTQGSLLELYRRYQIRDSLISLYTKQILDGLKYLHHKGFIHRDIKCATILVDANGTVKLADFGLAKVSKLNDIKSRKETLFWMAPEVINRKDNDGYRSPADIWSLGCTVLEMCTGQIPYSDLEPVEALFRIRRGTLPEVPDTLSLDARHFILKCLKLNPEERPTATELLNHPFVRRPLPSSGSGSTSPLIRR
B3: LET1-GFP (receptor, Arabidopsis thaliana (Col-0 cDNA), UniProt O22187 29-834, looked up)
chain: DTSTYTRPENFYVNCGSDSNVFYGGQTFVGDTNSSTNSVSFTNKGTEVINDQSSVAPEIYRTVRIFRHPSSYKFKLDSLGLHFVRLHFSVVFSRADLLTARFTVSATSGSNHHLKSFSPQNLTNTPRVEEFLLMMNSLEFEIRFVPDHSSLALINAIEVFSAPDDLEIPSASDKNLHTIYRLNVGGEKITPDNDTLGRTWLPDDDDFLYRKDSARNINSTQTPNYVGGLSSATDSTAPDFVYKTAKAMNRSSNEQVGMLMNVTWSFKVKSNHRHFIRIHFSDILSNLSNSDSDFYLFVNGYWRVDVKPSEQPRLASPFFKDVVNVSDGSGLLNISIGTKEANKDAGFLNGLEMMEVLSKSGSDYSNRSSSRVHIITGCAVAAAAASALVFSLLFMVFLKRRRSKKTKPEVEGTVWSPLPLHRGGSSDNRPISQYHNSPLRNLHLGLTIPFTDILSATNNFDEQLLIGKGGFGYVYKAILPDGTKAAIKRGKTGSGQGILEFQTEIQVLSRIRHRHLVSLTGYCEENSEMILVYEFMEKGTLKEHLYGSNLPSLTWKQRLEICIGAARGLDYLHSSGSEGAIIHRDVKSTNILLDEHNIAKVADFGLSKIHNQDESNISINIKGTFGYLDPEYLQTHKLTEKSDVYAFGVVLLEVLFARPAIDPYLPHEEVNLSEWVMFCKSKGTIDEILDPSLIGQIETNSLKKFMEIAEKCLKEYGDERPSMRDVIWDLEYVLQLQMMTNRREAHEEDSTAINSGGSLVAPRLMVSDSFSTNSIFQNGDESKNRFGFTDSSETRVFSQLKISDAR

Key:
Assay in all cases: FRET or BRET
BIR2-mCherry = molecular target: T1, BIR2-mCherry (UniProt Q9LSI9 29-605)
T1 sequence (looked up): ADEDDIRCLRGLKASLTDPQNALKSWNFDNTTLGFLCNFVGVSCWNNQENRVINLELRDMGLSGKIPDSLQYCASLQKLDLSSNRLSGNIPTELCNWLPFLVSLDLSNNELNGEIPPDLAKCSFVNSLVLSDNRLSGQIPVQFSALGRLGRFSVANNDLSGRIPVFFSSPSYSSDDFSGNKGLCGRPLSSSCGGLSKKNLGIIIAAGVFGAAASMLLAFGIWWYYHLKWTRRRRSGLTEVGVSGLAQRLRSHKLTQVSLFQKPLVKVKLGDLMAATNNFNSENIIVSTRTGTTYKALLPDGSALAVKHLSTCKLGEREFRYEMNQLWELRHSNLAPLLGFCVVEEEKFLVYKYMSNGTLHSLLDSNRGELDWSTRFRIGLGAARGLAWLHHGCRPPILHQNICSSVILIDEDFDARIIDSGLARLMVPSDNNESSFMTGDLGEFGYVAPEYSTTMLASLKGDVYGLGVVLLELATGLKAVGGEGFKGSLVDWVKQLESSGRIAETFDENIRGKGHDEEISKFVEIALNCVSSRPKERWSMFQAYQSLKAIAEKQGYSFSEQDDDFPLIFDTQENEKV

SUMM2-GFP = molecular target: T2, SUMM2-GFP (Arabidopsis thaliana (Col-0 cDNA), UniProt P60838 1-894)
T2 sequence (looked up): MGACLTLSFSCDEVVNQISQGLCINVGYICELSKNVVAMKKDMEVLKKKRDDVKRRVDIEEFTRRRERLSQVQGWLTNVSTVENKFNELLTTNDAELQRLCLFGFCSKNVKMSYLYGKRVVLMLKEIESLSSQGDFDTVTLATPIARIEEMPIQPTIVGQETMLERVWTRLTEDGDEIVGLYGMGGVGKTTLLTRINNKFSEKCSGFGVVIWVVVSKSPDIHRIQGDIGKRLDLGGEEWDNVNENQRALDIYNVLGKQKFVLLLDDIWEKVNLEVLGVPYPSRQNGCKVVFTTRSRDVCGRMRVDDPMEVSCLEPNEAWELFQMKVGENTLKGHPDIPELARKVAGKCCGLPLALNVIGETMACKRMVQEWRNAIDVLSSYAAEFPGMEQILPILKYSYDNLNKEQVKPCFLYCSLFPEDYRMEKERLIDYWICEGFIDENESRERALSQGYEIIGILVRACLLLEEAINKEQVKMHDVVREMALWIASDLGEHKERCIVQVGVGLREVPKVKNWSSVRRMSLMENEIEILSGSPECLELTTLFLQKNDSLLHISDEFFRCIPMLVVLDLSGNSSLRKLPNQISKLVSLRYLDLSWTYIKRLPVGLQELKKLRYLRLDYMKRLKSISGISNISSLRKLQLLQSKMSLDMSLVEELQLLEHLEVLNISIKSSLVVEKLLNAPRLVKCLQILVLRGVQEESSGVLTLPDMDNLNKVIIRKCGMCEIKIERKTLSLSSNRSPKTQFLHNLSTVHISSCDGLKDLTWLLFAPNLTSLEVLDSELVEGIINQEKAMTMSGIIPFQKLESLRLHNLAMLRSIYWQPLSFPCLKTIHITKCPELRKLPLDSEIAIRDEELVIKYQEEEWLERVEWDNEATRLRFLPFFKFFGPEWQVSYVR

MEKK2-mCherry = molecular target: B2

## B1
BIR2-mCherry
  FRET efficiency: 13.5%

## B2
SUMM2-GFP
  FRET efficiency: 7.99 ± 0.19%

## B3
MEKK2-mCherry
  FRET efficiency: 13.1 ± 1.76%
